The text below walks through data of patent US8663912B2, “Fluorogenic substrate for ADAMTS13” (Washington University, priority 2011, dated 2014).

One data set addresses T1, plasma ADAMTS13 (Homo sapiens, UniProt Q76LX8).
T1 construct: from tissue; host or cells: human plasma or serum (pooled normal plasma, healthy donors, TTP patients)
T1 sequence (Q76LX8 75-1427): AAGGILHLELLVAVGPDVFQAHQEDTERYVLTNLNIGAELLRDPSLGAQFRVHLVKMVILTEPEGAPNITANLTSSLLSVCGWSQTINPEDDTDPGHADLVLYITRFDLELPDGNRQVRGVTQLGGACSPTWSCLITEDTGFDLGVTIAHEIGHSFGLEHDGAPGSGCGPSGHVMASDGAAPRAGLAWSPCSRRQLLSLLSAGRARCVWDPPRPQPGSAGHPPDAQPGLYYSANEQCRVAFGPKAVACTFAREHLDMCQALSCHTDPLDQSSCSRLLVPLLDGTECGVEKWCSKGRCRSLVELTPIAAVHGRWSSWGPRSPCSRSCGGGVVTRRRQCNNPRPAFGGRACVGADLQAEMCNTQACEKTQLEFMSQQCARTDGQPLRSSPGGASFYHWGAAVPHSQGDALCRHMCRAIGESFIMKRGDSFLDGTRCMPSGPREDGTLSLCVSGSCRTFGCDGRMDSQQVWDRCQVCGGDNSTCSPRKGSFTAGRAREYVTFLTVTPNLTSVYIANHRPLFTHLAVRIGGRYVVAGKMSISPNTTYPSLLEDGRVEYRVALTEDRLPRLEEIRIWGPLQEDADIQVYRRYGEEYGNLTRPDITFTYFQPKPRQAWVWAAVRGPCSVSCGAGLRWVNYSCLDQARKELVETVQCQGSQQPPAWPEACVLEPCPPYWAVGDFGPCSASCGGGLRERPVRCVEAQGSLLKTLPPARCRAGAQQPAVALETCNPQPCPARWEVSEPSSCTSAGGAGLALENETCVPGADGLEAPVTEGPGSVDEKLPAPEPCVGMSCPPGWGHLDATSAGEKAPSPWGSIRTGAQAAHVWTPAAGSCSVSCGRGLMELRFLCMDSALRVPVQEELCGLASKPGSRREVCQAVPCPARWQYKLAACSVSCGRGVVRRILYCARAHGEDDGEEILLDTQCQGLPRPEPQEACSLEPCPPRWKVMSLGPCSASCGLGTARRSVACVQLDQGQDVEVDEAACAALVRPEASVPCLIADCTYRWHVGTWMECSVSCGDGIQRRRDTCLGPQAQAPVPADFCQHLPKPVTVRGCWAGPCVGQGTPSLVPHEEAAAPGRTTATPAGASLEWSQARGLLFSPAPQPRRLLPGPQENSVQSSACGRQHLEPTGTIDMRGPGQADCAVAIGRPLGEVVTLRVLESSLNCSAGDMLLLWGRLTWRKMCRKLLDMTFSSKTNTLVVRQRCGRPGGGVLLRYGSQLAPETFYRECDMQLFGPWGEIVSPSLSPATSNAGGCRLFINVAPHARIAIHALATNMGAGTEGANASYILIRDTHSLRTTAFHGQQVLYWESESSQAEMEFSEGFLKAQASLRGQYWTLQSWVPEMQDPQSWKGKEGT
In words: Kinetics of FRETS-rVWF71 cleavage by plasma ADAMTS13 (Michaelis-Menten). The class given is biochemical. The protocol:
In these experiments, FRETS-rVWF71 cleavage by plasma ADAMTS13 (50 μL) was assessed in 200 μL reactions containing 50 mM HEPES, pH 7.4, 10 mM CaCl2, 150 mM NaCl, and 0.05% Tween-20, and varying concentrations of FRETS-rVWF71. The concentration of ADAMTS13 in PNP is ˜1.03 μg/ml (Feys, H. B., et al. J. Thromb. Haemost 4:955-62, 2006), or ˜6 nM for a molecular mass of 170 kDa. For each concentration of substrate, the relationship between product fluorescence and concentration was determined directly by cleaving FRETS-rVWF71 to completion with excess recombinant ADAMTS13 MDTCS (Feys, H. B., et al. J. Thromb. Haemost. 7:2088-95, 2009) and measuring the fluorescence. Control assays contained plasma that was completely deficient in ADAMTS13. The initial velocities (nM/min) as a function of substrate concentration were fitted to the Michealis-Menten equation by nonlinear regression analysis (Prism, GraphPad).
(FIG. 6). […] (Anderson, P. J., et al. J. Biol. Chem. 281:850-7, 2006).

Data set [1] in a line: Stability and pH dependence of fluorescence of FRETS-rVWF71. The class given is physicochemical. The protocol: In these experiments, DyLight 633 maleimide (Thermo Scientific, Waltham, Mass.) 1 mg/100 μL in dimethyl sulfoxide (DMSO) was added dropwise with stirring to peptide VWF71 (10 mg) in ≦2 mL of 100 mM sodium phosphate, pH 7.1, in the dark, and stirred overnight at room temperature. The product DyLight 633-rVWF71 was purified by HPLC on C18 using the TEAA/acetonitrile solvent system as described for the purification of VWF71. DyLight 633-rVWF71 was lyophilized and desalted on a small column of PD-10 in ≦2 mL of 100 mM sodium phosphate, pH 7.9. IRDye QC-1 N-hydroxysuccinimide ester 0.5 mg in 100 μL DMSO was added dropwise with stirring and the solution was stirred overnight at room temperature protected from light. The product FRETS-rVWF71 was purified by reverse phase HPLC, lyophilized, dissolved in ≦0.5 mL of deionized water and applied onto a column (7×230 mm) of Amberlite IR120 sodium form. FRETS-rVWF71 product was eluted with deionized water and lyophilized or concentrated by ultrafiltration to ≧250 μM. The concentration was verified by amino acid analysis (The Protein Chemistry Laboratory, Texas A&M University).

The nature of data set [2]: Solubility of substrate in water. The data set is classed as physicochemical. Particulars: sodium salt. An excerpt:
The present inventors have tested several combinations of donor and quencher groups chosen for lack of interference from blood proteins. For example, modification at Cys^1610 with Alexa Fluor 594 maleimide (abs 590 nm, em 617 nm, ε 96,000) and at N-terminal. […] In one embodiment, a substrate of the present teachings is modified at Cys^1610 with DyLight 633-maleimide (Thermo, abs 638 nm, em 658 nm, ε 170,000), and at N-terminal Gly with IRDye QC-1 N-hydroxysuccinimidyl ester (LI-COR, abs 737 nm, ε 96,000). […] After RP-HPLC purification the doubly-labeled substrate (FRETS-rVWF71) is soluble at >50 μM.
In these experiments, DyLight 633 maleimide (Thermo Scientific, Waltham, Mass.) 1 mg/100 μL in dimethyl sulfoxide (DMSO) was added dropwise with stirring to peptide VWF71 (10 mg) in ≦2 mL of 100 mM sodium phosphate, pH 7.1, in the dark, and stirred overnight at room temperature. The product DyLight 633-rVWF71 was purified by HPLC on C18 using the TEAA/acetonitrile solvent system as described for the purification of VWF71. DyLight 633-rVWF71 was lyophilized and desalted on a small column of PD-10 in ≦2 mL of 100 mM sodium phosphate, pH 7.9. IRDye QC-1 N-hydroxysuccinimide ester 0.5 mg in 100 μL DMSO was added dropwise with stirring and the solution was stirred overnight at room temperature protected from light. […]

* marks the point of attachment. X1 = CC1(C)C(/C=C/C2=C(Cl)C(=C/C=C3/N(CCCCCC(=O)*)c4ccc5cc(S(=O)(=O)O)ccc5c4C3(C)C)/CCC2)=[N+](CCCS(=O)(=O)[O-])c2ccc(N(CCCS(=O)(=O)O)CCCS(=O)(=O)O)cc21; X2 = CC(C)(C)c1cc(/C=C/C=C2\N(CCCS(=O)(=O)O)c3ccc(S(=O)(=O)O)cc3C2(C)CCCC(=O)CCN2C(=O)CC(*)C2=O)c2ccc(N(CCCS(=O)(=O)[O-])CCCS(=O)(=O)O)cc2[o+]1 Where only a bound is given, the exact number is not on record here.

For “X1-GQAPNLVYMVTGC(X2)PASDEIRRLPGDIQVVPIGVGPNANVQELERIGWPNAPILIQDFETLPREAPDLVLQR [FRETS-rVWF71]”, the “decrease of the rate of catalysis relative to FRETS-VWF73” value at plasma ADAMTS13 (kcat compared with FRETS-VWF73) was approximately 8 fold. For the same substance, the kcat with plasma ADAMTS13 (plasma ADAMTS13, 50 mM HEPES pH 7.4, 10 mM CaCl2, 150 mM NaCl, 30° C.) came to 0.113 s⁻¹. In addition, the “variation of fluorescence emission at 660 nm with pH” value in data set [1] (excitation 635 nm, uncleaved and fully cleaved substrate, between pH 5 and pH 10) is on record as less than 7%. In addition, the “stability of final product” value in data set [1] (sodium salt) is listed as “stable”. Moreover, the stability on storage entry in data set [1] (working stocks at −20° C. thawed and refrozen repeatedly over several months) is “without any change in stability or chemical properties”. In addition, the solubility in data set [2] was more than 250 µM.
